According to patent US6395531:

Test system: MlyI restriction endonuclease (Micrococcus lylae)
Assay: cleavage_in_vitro
Details: recombinant MlyI yield approximately 50,000 units per gram of cells; assay substrate not stated

plasmid DNA with MlyI sites (sequence not printed)
activity (units/g cells): 50000
